Measured values as given in patent US20140220070A1, “USE OF PLANT CELL MEMBRANE TREATMENT OF OBESITY” (Thylabisco AB, priority 2005, published 2014).

Biological target: T1, pancreatic lipase (Homo sapiens, UniProt P16233)
T1 sequence (P16233 17-465): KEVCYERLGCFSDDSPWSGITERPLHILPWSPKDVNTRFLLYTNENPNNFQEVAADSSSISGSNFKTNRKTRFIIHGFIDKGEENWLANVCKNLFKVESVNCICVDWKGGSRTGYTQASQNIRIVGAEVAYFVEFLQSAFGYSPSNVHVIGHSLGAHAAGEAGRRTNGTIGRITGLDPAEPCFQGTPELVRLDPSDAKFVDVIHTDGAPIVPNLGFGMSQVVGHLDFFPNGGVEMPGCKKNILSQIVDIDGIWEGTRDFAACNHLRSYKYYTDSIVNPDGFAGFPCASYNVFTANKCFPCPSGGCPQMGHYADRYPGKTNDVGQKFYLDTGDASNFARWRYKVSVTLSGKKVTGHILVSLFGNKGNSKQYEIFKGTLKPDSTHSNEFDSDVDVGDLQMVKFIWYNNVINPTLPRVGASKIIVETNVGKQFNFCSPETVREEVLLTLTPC
Test: Measurement of the lipase activity (pH stat, tributyrin)
Format: biochemical
Settings: increasing amounts of membranes/proteins, lipase + colipase, pH 7.0, curves only in FIG. 1-3
Method: The lipase activity was measured according to the following (Borgstrom B. and Erlanson C. European J. of Biochemistry 37: 60-68, 1973): 15 ml of an aqueous solution containing 1 mM Tris buffer pH 7.0, 1 mM calcium chloride, 150 mM sodium chloride, 4 mM sodiumtaurodeoxycholate, 0.5 μg lipase, 1 μg of colipase.
To this mixture 0.5 ml of tributyrin is added together with increasing amounts of membranes and the released fatty acids measured using a pH stat.

transhydrogenase: isolated membrane protein, transhydrogenase prepared from E. coli
inhibition of pancreatic lipase: inhibition
